# Test system: MOP7/human ARNT (transfected) (Mus musculus)
# Test: cell_activity
# Conditions: COS-1 luciferase; enhanced by hypoxia or CoCl2
substance,measurement,value
HRE reporter (six HRE enhancer elements),activity,11.7 fold

# From patent US20060084798
